Data: US20080160006A1, “Nutrient Medium for Maintaining Neural Cells in Injured Nervous System” (priority 2001, published 2008)

Tested on: human cortical brain cells (neurons vs glia)
Assay: Adult human cortical brain cells cultured in B27/Neurobasal A, immunostained for neurofilament and GFAP
Type: cell-based
Conditions: added in addition to FGF2, sample 4
Excerpt: GENERAL METHODS. Brain tissue was ethically obtained by informed consent from patients before surgery under protocols approved by the Springfield Committee for Research on Human Subjects and the UC Irvine IRB. […] Rather than using aspiration to remove all tissue, slices of tissue 1-3 mm thick were obtained from cortical access ports or tissue that was marginal to the lesion. Use of electrocautery was kept to a minimum to reduce oxyradicals and other neuron damage. […] Hibernate A contains D-glucose, pyruvate, balanced salts, amino acids, and vitamins. B27 contains 5 antioxidants and 15 other components. […] After transport on ice to a laminar flow sterile hood in the culture laboratory, meninges and white matter were removed from the tissue with a scalpel and forceps in a 35 mm dish in 2 ml transport medium. […] The cell suspension was enriched for neurons by centrifugation on a density gradient of Optiprep (Invitrogen). […] The diluted Optiprep was further diluted with transport medium (v/v) to make a gradient containing 4 steps of 1 ml in a 15 ml centrifuge tube: bottom (0.35:0.65), 0.25:0.75, 0.2:0.8, top (0.15:0.85). Up to 6 ml of cell suspension was layered over the Optiprep step gradient. […] Cells were plated at a density of 320/mm^2 onto glass coverslips coated with polylysine as previously described. […]

B1: NT3: trophic factor NT3, recombinant, Regeneron (protein, UniProt P20783 139-257, looked up)
Neurotrophin-3: YAEHKSHRGEYSVCDSESLWVTDKSSAIDIRGHQVTVLGEIKTGNSPVKQYFYETRCKEARPVKNGCRGIDDKHWNSQCKTSQTYVRALTSENNKLVGWRWIRIDTSCVCALSRKIGRT
  survival of neurofilament positive cells versus FGF2 alone: no more efficacious
